From paper PMC3390916 (Chembiochem, 2011)

Target: growth factor receptor-bound protein 2 (Grb2), recombinant (human, UniProt P62993 1-217)
Experiment: SPR

Kd: 7.5 ± 5.7 mM
B1: SH3-binding peptide (YEVPPPVPPRRR) (peptide)
peptide: YEVPPPVPPRRRGSC
